Reference: patent US20200164032A1
pKd: −log10 of the molar value.

How the values were obtained:
[1] = biological target: CXCL12 (hSDF-1b) (Homo sapiens) (UniProt P48061); test: BLI (Octet Red), biotinylated T17 on streptavidin biosensors; t1/2
[2] = biological target: XCL1 (as tested against T17; species not stated); test: as above
[3] = biological target: CXCL12 (hSDF-1a) (Homo sapiens) (UniProt P48061); test: as above
[4] = biological target: CXCL10 (as tested against T17; species not stated); test: as above
[5] = biological target: CXCL12 (hSDF-1b) (Homo sapiens) (UniProt P48061); test: BLI (Octet Red), biotinylated T17 on streptavidin biosensors; KD,eq
[6] = biological target: XCL1 (as tested against T17; species not stated); test: as above
[7] = biological target: CXCL10 (as tested against T17; species not stated); test: as above
murine CCL12 (mouse) [8] = biological target: murine CCL12 (mouse) (UniProt Q62401); test: SPR (Biacore T-100), T17 on CM5 chip; KD,eq
Chain of murine CCL12 (mouse) (Q62401 23-104 limits assumed): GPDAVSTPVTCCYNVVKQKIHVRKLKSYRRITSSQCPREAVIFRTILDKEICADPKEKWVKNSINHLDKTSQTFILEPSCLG

murine CCL21 (mouse) [9] = biological target: murine CCL21 (mouse) (UniProt P84444); test: SPR (Biacore T-100), T17 on CM5 chip; KD,eq
Chain of murine CCL21 (mouse) (P84444 24-133): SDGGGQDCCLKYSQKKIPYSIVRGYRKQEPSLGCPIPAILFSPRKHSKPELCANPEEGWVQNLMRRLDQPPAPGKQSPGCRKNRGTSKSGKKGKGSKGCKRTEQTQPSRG

murine CCL3 (mouse) [10] = biological target: murine CCL3 (mouse) (UniProt P10855); test: SPR (Biacore T-100), T17 on CM5 chip; KD,eq
Chain of murine CCL3 (mouse) (P10855 24-92 limits assumed): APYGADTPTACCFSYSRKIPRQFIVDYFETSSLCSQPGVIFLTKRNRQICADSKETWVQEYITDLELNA

murine CCL8 (mouse) [11] = biological target: murine CCL8 (mouse) (UniProt Q9Z121); test: SPR (Biacore T-100), T17 on CM5 chip; KD,eq
Chain of murine CCL8 (mouse) (Q9Z121 24-97 limits assumed): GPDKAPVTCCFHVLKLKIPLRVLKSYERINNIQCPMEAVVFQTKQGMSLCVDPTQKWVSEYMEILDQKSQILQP

human CCL2 (human) [12] = biological target: human CCL2 (human) (UniProt P13500); test: SPR (Biacore T-100), T17 on CM5 chip; KD,eq
Chain of human CCL2 (human) (P13500 24-99 limits assumed): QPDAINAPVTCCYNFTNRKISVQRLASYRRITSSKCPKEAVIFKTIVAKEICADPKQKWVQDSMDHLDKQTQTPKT

murine CCL20 (mouse) [13] = biological target: murine CCL20 (mouse) (UniProt O89093); test: SPR (Biacore T-100), T17 on CM5 chip; KD,eq
Chain of murine CCL20 (mouse) (O89093 28-97 limits assumed): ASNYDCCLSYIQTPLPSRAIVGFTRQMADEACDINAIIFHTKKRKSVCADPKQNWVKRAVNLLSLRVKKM

murine CCL24 (mouse) [14] = biological target: murine CCL24 (mouse) (UniProt Q9JKC0); test: SPR (Biacore T-100), T17 on CM5 chip; KD,eq
Chain of murine CCL24 (mouse) (Q9JKC0 27-119 limits assumed): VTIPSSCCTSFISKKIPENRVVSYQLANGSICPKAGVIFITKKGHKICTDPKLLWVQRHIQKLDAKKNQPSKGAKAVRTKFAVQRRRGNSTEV

murine CCL5 (mouse) [15] = biological target: murine CCL5 (mouse) (UniProt P30882); test: SPR (Biacore T-100), T17 on CM5 chip; KD,eq
Chain of murine CCL5 (mouse) (P30882 24-91 limits assumed): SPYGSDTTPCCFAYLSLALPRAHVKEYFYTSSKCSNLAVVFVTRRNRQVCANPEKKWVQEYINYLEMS

murine CCL11 (mouse) [16] = biological target: murine CCL11 (mouse) (UniProt P48298); test: SPR (Biacore T-100), T17 on CM5 chip; KD,eq
Chain of murine CCL11 (mouse) (P48298 24-97 limits assumed): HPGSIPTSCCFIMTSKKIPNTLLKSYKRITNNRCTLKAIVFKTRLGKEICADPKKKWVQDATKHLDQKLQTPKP

murine CCL2 (mouse) [17] = biological target: murine CCL2 (mouse) (UniProt P10148); test: SPR (Biacore T-100), T17 on CM5 chip; KD,eq
Chain of murine CCL2 (mouse) (P10148 24-148 limits assumed): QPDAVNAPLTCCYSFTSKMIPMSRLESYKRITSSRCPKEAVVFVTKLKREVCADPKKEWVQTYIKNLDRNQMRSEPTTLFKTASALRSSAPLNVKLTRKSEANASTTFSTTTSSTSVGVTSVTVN

CCL9 [18] = biological target: CCL9 (UniProt P51670); test: SPR (Biacore T-100), T17 on CM5 chip; KD,eq
Chain of CCL9 (P51670 22-122 limits assumed): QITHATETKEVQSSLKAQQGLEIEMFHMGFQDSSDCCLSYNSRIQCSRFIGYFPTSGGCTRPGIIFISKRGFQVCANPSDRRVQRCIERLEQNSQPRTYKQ

murine CCL4 (mouse) [19] = biological target: murine CCL4 (mouse) (UniProt P14097); test: SPR (Biacore T-100), T17 on CM5 chip; KD,eq
Chain of murine CCL4 (mouse) (P14097 24-92 limits assumed): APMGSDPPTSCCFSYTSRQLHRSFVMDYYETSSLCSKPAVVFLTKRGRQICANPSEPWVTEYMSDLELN

murine CCL12 (mouse) [20] = biological target: murine CCL12 (mouse) (UniProt Q62401); test: SPR (Biacore T-100), T17 on CM5 chip; global 1:1 mass transport fit
murine CCL21 (mouse) [21] = biological target: murine CCL21 (mouse) (UniProt P84444); test: as above
murine CCL3 (mouse) [22] = biological target: murine CCL3 (mouse) (UniProt P10855); test: as above
murine CCL8 (mouse) [23] = biological target: murine CCL8 (mouse) (UniProt Q9Z121); test: as above
human CCL2 (human) [24] = biological target: human CCL2 (human) (UniProt P13500); test: as above
murine CCL20 (mouse) [25] = biological target: murine CCL20 (mouse) (UniProt O89093); test: as above
murine CCL24 (mouse) [26] = biological target: murine CCL24 (mouse) (UniProt Q9JKC0); test: as above
murine CCL5 (mouse) [27] = biological target: murine CCL5 (mouse) (UniProt P30882); test: as above
murine CCL11 (mouse) [28] = biological target: murine CCL11 (mouse) (UniProt P48298); test: as above
murine CCL2 (mouse) [29] = biological target: murine CCL2 (mouse) (UniProt P10148); test: as above
CCL9 [30] = biological target: CCL9 (UniProt P51670); test: as above
murine CCL4 (mouse) [31] = biological target: murine CCL4 (mouse) (UniProt P14097); test: as above
murine CCL12 (mouse) [32] = biological target: murine CCL12 (mouse) (UniProt Q62401); test: SPR (Biacore T-100), T17 on CM5 chip; KD,kin
murine CCL21 (mouse) [33] = biological target: murine CCL21 (mouse) (UniProt P84444); test: SPR (Biacore T-100), T17 on CM5 chip; KD,kin
murine CCL3 (mouse) [34] = biological target: murine CCL3 (mouse) (UniProt P10855); test: SPR (Biacore T-100), T17 on CM5 chip; KD,kin
murine CCL8 (mouse) [35] = biological target: murine CCL8 (mouse) (UniProt Q9Z121); test: SPR (Biacore T-100), T17 on CM5 chip; KD,kin
human CCL2 (human) [36] = biological target: human CCL2 (human) (UniProt P13500); test: SPR (Biacore T-100), T17 on CM5 chip; KD,kin
murine CCL20 (mouse) [37] = biological target: murine CCL20 (mouse) (UniProt O89093); test: SPR (Biacore T-100), T17 on CM5 chip; KD,kin
murine CCL24 (mouse) [38] = biological target: murine CCL24 (mouse) (UniProt Q9JKC0); test: SPR (Biacore T-100), T17 on CM5 chip; KD,kin
murine CCL5 (mouse) [39] = biological target: murine CCL5 (mouse) (UniProt P30882); test: SPR (Biacore T-100), T17 on CM5 chip; KD,kin
murine CCL11 (mouse) [40] = biological target: murine CCL11 (mouse) (UniProt P48298); test: SPR (Biacore T-100), T17 on CM5 chip; KD,kin
murine CCL2 (mouse) [41] = biological target: murine CCL2 (mouse) (UniProt P10148); test: SPR (Biacore T-100), T17 on CM5 chip; KD,kin
CCL9 [42] = biological target: CCL9 (UniProt P51670); test: SPR (Biacore T-100), T17 on CM5 chip; KD,kin
murine CCL4 (mouse) [43] = biological target: murine CCL4 (mouse) (UniProt P14097); test: SPR (Biacore T-100), T17 on CM5 chip; KD,kin
[44] = biological target: CXCL12 (hSDF-1b) (Homo sapiens) (UniProt P48061); test: BLI (Octet Red), biotinylated T17 on streptavidin biosensors; KD,kin
[45] = biological target: XCL1 (as tested against T17; species not stated); test: as above
[46] = biological target: CXCL10 (as tested against T17; species not stated); test: as above
murine CCL12 (mouse) [47] = biological target: murine CCL12 (mouse) (UniProt Q62401); test: SPR (Biacore T-100), T17 on CM5 chip; t1/2
murine CCL21 (mouse) [48] = biological target: murine CCL21 (mouse) (UniProt P84444); test: SPR (Biacore T-100), T17 on CM5 chip; t1/2
murine CCL3 (mouse) [49] = biological target: murine CCL3 (mouse) (UniProt P10855); test: SPR (Biacore T-100), T17 on CM5 chip; t1/2
murine CCL8 (mouse) [50] = biological target: murine CCL8 (mouse) (UniProt Q9Z121); test: SPR (Biacore T-100), T17 on CM5 chip; t1/2
human CCL2 (human) [51] = biological target: human CCL2 (human) (UniProt P13500); test: SPR (Biacore T-100), T17 on CM5 chip; t1/2
murine CCL20 (mouse) [52] = biological target: murine CCL20 (mouse) (UniProt O89093); test: SPR (Biacore T-100), T17 on CM5 chip; t1/2
murine CCL24 (mouse) [53] = biological target: murine CCL24 (mouse) (UniProt Q9JKC0); test: SPR (Biacore T-100), T17 on CM5 chip; t1/2
murine CCL5 (mouse) [54] = biological target: murine CCL5 (mouse) (UniProt P30882); test: SPR (Biacore T-100), T17 on CM5 chip; t1/2
murine CCL11 (mouse) [55] = biological target: murine CCL11 (mouse) (UniProt P48298); test: SPR (Biacore T-100), T17 on CM5 chip; t1/2
murine CCL2 (mouse) [56] = biological target: murine CCL2 (mouse) (UniProt P10148); test: SPR (Biacore T-100), T17 on CM5 chip; t1/2
CCL9 [57] = biological target: CCL9 (UniProt P51670); test: SPR (Biacore T-100), T17 on CM5 chip; t1/2
murine CCL4 (mouse) [58] = biological target: murine CCL4 (mouse) (UniProt P14097); test: SPR (Biacore T-100), T17 on CM5 chip; t1/2
[59] = biological target: CXCL12 (hSDF-1b) (Homo sapiens) (UniProt P48061)
[60] = biological target: XCL1 (as tested against T17; species not stated)
[61] = biological target: CXCL10 (as tested against T17; species not stated)
murine CCL3 (mouse) [62] = biological target: murine CCL3 (mouse) (UniProt P10855); test: SPR, T17 amine-coupled to CM5 chip
human CCL2 (human) [63] = biological target: human CCL2 (human) (UniProt P13500); test: SPR, T17 amine-coupled to CM5 chip
murine CCL2 (mouse) [64] = biological target: murine CCL2 (mouse) (UniProt P10148); test: SPR, T17 amine-coupled to CM5 chip

Chain of CXCL12 (hSDF-1b) (Homo sapiens) (P48061 22-93): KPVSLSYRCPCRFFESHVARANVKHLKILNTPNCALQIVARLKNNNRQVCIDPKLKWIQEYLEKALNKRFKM
Chain of CXCL12 (hSDF-1a) (Homo sapiens) (P48061 22-89 limits assumed): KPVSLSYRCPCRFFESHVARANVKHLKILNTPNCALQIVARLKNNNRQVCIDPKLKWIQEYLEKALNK

T17 chemokine decoy receptor of Rodent herpesvirus Texas (RHVT), C-terminal His tag (6 histidine residues) fusion
t1/2 [1]: 40.1 s
t1/2 [2]: 54.6 s
t1/2 [3]: 20.2 s
t1/2 [4]: 39.8 s
pKd [5]: 7.35
pKd [6]: 7.72
pKd [7]: 7.61
pKd (murine CCL12 (mouse) [8]): 7.91
pKd (murine CCL21 (mouse) [9]): 7.65
pKd (murine CCL3 (mouse) [10]): 8.17
pKd (murine CCL8 (mouse) [11]): 8.42
pKd (human CCL2 (human) [12]): 7.83
pKd (murine CCL20 (mouse) [13]): 7.63
pKd (murine CCL24 (mouse) [14]): 7.92
pKd (murine CCL5 (mouse) [15]): 8.38
pKd (murine CCL11 (mouse) [16]): 7.47
pKd (murine CCL2 (mouse) [17]): 7.41
pKd (CCL9 [18]): 7.41
pKd (murine CCL4 (mouse) [19]): 8.32
koff (murine CCL12 (mouse) [20]): 0.0396 s⁻¹
kon (murine CCL12 (mouse) [20]): 1.56e+07 M⁻¹ s⁻¹
koff (murine CCL21 (mouse) [21]): 0.0132 s⁻¹
kon (murine CCL21 (mouse) [21]): 851000 M⁻¹ s⁻¹
koff (murine CCL3 (mouse) [22]): 0.0076 s⁻¹
kon (murine CCL3 (mouse) [22]): 2.35e+06 M⁻¹ s⁻¹
koff (murine CCL8 (mouse) [23]): 0.0205 s⁻¹
kon (murine CCL8 (mouse) [23]): 1.66e+07 M⁻¹ s⁻¹
koff (human CCL2 (human) [24]): 0.0265 s⁻¹
kon (human CCL2 (human) [24]): 1.51e+07 M⁻¹ s⁻¹
koff (murine CCL20 (mouse) [25]): 0.0192 s⁻¹
kon (murine CCL20 (mouse) [25]): 3.42e+06 M⁻¹ s⁻¹
koff (murine CCL24 (mouse) [26]): 0.0053 s⁻¹
kon (murine CCL24 (mouse) [26]): 506000 M⁻¹ s⁻¹
koff (murine CCL5 (mouse) [27]): 0.0035 s⁻¹
kon (murine CCL5 (mouse) [27]): 2.41e+06 M⁻¹ s⁻¹
koff (murine CCL11 (mouse) [28]): 0.00637 s⁻¹
kon (murine CCL11 (mouse) [28]): 1.73e+07 M⁻¹ s⁻¹
koff (murine CCL2 (mouse) [29]): 0.00308 s⁻¹
kon (murine CCL2 (mouse) [29]): 431000 M⁻¹ s⁻¹
koff (CCL9 [30]): 0.0298 s⁻¹
kon (CCL9 [30]): 1.65e+06 M⁻¹ s⁻¹
koff (murine CCL4 (mouse) [31]): 0.0212 s⁻¹
kon (murine CCL4 (mouse) [31]): 8.12e+07 M⁻¹ s⁻¹
pKd (murine CCL12 (mouse) [32]): 8.60
pKd (murine CCL21 (mouse) [33]): 7.81
pKd (murine CCL3 (mouse) [34]): 8.49
pKd (murine CCL8 (mouse) [35]): 8.91
pKd (human CCL2 (human) [36]): 8.75
pKd (murine CCL20 (mouse) [37]): 8.25
pKd (murine CCL24 (mouse) [38]): 7.98
pKd (murine CCL5 (mouse) [39]): 8.83
pKd (murine CCL11 (mouse) [40]): 9.43
pKd (murine CCL2 (mouse) [41]): 8.15
pKd (CCL9 [42]): 7.74
pKd (murine CCL4 (mouse) [43]): 9.80
pKd [44]: 7.40
pKd [45]: 7.98
pKd [46]: 7.67
t1/2 (murine CCL12 (mouse) [47]): 17.5 s
t1/2 (murine CCL21 (mouse) [48]): 52.5 s
t1/2 (murine CCL3 (mouse) [49]): 90.7 s
t1/2 (murine CCL8 (mouse) [50]): 33.9 s
t1/2 (human CCL2 (human) [51]): 26.2 s
t1/2 (murine CCL20 (mouse) [52]): 36.1 s
t1/2 (murine CCL24 (mouse) [53]): 131 s
t1/2 (murine CCL5 (mouse) [54]): 196 s
t1/2 (murine CCL11 (mouse) [55]): 109 s
t1/2 (murine CCL2 (mouse) [56]): 225 s
t1/2 (CCL9 [57]): 23.3 s
t1/2 (murine CCL4 (mouse) [58]): 32.7 s
koff [59]: 0.0173 s⁻¹
kon [59]: 436000 M⁻¹ s⁻¹
koff [60]: 0.0127 s⁻¹
kon [60]: 1.23e+06 M⁻¹ s⁻¹
koff [61]: 0.0174 s⁻¹
kon [61]: 812000 M⁻¹ s⁻¹
complex half-life (t1/2) (murine CCL3 (mouse) [62]): 90 s
complex half-life (human CCL2 (human) [63]): 26 s
complex half-life (murine CCL2 (mouse) [64]): 225 s
